Among the data in article PMC5036187 (Scientific Reports, 2016) are EC50 values, retold here.

For orientation: EC50 means the concentration that produces a half-maximal response.

For the experiment, the target named is T1, Glypican-3 (GPC3) on G1 cells (Homo sapiens, UniProt P51654).
T1 construct: also called GPC3+ cells (G1)
Briefly: flow cytometry on cells. Particulars: one partner purified. Background: Flow cytometry measures light scatter and fluorescence of single cells or particles in a stream.

T1 sequence (P51654 25-580): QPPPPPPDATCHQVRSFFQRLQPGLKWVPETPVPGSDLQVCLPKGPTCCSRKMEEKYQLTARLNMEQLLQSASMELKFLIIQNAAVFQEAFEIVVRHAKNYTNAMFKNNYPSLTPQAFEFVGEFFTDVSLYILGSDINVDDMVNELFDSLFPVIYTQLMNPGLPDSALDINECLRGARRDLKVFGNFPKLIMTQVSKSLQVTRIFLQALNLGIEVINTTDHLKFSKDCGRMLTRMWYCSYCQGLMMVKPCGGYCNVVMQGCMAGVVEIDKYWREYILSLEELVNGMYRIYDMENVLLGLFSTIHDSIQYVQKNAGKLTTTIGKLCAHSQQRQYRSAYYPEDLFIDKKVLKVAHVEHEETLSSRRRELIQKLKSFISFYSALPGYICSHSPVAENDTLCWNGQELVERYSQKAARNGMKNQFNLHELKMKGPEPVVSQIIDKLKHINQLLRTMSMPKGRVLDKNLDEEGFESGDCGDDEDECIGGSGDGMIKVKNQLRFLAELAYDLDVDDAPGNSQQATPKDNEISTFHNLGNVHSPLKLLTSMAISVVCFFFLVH

B1: humanized YP7 antibody, IgG format (human IgG1 kappa) (antibody, V domains shown)
VH: EVQLVESGGGLVQPGGSLRLSCAASGFTFNKNAMNWVRQAPGKGLEWVGRIRNKTNNYATYYADSVKARFTISRDDSKNSLYLQMNSLKTEDTAVYYCVAGNSFAYWGQGTLVTVS
VL: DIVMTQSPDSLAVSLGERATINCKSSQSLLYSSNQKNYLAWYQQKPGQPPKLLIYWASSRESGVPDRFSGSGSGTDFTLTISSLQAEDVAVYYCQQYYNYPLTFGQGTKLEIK
notes: also called hYP7; hYP7 IgG
As to B1, the midpoint of the response, the EC50, lay at 0.7 nM.

B2: humanized YP9.1b antibody, IgG format (human IgG1 kappa) (antibody, V domains shown)
VH: EVQLVESGGGLVQPGGSLRLSCAASGFNFNTNAMNWVRQAPGKGLEWVGRVRNKTNNYATYYADSVKDRFTISRDDSKNSLYLQMNSLKTEDTAVYYCVAGNSFAYWGQGTLVTVS
VL: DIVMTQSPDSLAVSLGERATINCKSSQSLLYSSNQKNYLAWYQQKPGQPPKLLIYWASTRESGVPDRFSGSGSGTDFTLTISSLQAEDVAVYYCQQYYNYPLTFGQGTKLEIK
notes: also called hYP9.1b; hYP9.1b IgG
For B2, the EC50 was 0.4 nM.
